# Columns and labels:
# human NKp30 (human) [1] = target: human NKp30 (human) (UniProt O14931); experiment: BLI, immunoligand on anti-hFc tip
# [2] = target: NKp30 on human NK cells (human) (UniProt O14931); experiment: cell-based or functional assay
# human NKp30 (human) [3] = target: human NKp30 (human) (UniProt O14931); experiment: BLI, ratio to ΔB7-H6_wt
# human NKp30 (human), sequence (O14931 19-135 limits assumed): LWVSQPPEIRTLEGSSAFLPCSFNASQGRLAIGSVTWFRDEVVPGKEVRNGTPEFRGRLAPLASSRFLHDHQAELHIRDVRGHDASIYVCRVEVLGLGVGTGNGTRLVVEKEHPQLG
# NKp30 on human NK cells (human), sequence (O14931 19-201): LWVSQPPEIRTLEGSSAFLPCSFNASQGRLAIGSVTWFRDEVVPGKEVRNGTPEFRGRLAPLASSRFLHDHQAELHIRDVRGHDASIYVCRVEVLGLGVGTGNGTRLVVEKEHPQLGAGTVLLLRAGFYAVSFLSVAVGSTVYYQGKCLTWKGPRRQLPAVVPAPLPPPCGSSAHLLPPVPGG
Binder,Kd (human NKp30 (human) [1]) [nM],koff (human NKp30 (human) [1]) [s⁻¹],kon (human NKp30 (human) [1]) [M⁻¹ s⁻¹],A431 EC50 with PBMC (pM) [2] [pM],A549 EC50 with PBMC (pM) [2] [pM],"EC50 (pM), A431 lysis with PBMC [2] [pM]",EC50 improvement compared to ΔB7-H6 wt [2] [fold],KD improvement compared to ΔB7-H6 wt (human NKp30 (human) [3]) [fold],x-fold KD improvement (human NKp30 (human) [3]) [fold],x-fold Koff improvement (human NKp30 (human) [3]) [fold]
"ΔB7-H6_S3#29-SEED-PGLALA (bispecific antibody, part only; not given: SEED Fc chains and hu225 EGFR Fab, part only) chain, part: DLKVEMMAGGTQITPLNDNVTIFCNIFYSQPLNITVMGITWFWKSLTFDKEVKVFEFWGDHQEAFRPGAIVSPWRLKSGDASLRLPGIQLEEAGEYRCEVIVTPYKAQGTVQLEVVASPAS",24.8,0.0175,705000,33.6,172,7.6,114,16.5,16.5,9.6
"ΔB7-H6_S3#10-SEED-PGLALA (bispecific antibody, part only; not given: SEED Fc chains and hu225 Fab, part only) chain, part: DLKVEMMAGGTQITPLNDNVTIFCNIFYSQPLNITSMGITWFWKSLTFDKEVKVFEFYGDHQEAFRPGAIVSPWRLKSGDASLRLPGIQLEEAGEYRCEVFVTPYKAQGTVQLEVVASPAS",145,0.0998,689000,–,–,85,10,2.8,2.8,1.7
"ΔB7-H6_S3#7-SEED-PGLALA (bispecific antibody, part only; not given: SEED Fc chains and hu225 Fab, part only) chain, part: DLKVEMMAGGTQITPLNDNVTIFCNIFYSQPLNITHMGITWFWKSLTFDKEVKVFEFYGDHQEAFRPGAIVSPWRLKSGDASLRLPGIQLEEAGEYRCEVVVTPYKAQGTVQLEVVASPAS",110,0.0525,478000,–,–,45.4,19,3.7,3.7,3.2
"ΔB7-H6_S3#17-SEED-PGLALA (bispecific antibody, part only; not given: SEED Fc chains and hu225 EGFR Fab, part only) chain, part: DLKVEMMAGGTQITPLNDNVTIFCNIFYSQPLNITSMGITWFWKSLTFDKEVKVFEFYGDHQEAFRPGAIVSPWRLKSGDASLRLPGIQLEEAGEYRCEVFVTPLKAQGTVQLEVVASPAS",59.1,0.0573,969000,–,–,427,2,6.9,6.9,2.9
"ΔB7-H6_S3#12-SEED-PGLALA (bispecific antibody, part only; not given: SEED Fc chains and hu225 Fab, part only) chain, part: DLKVEMMAGGTQITPLNDNVTIFCNIFYSQPLNITEMGITWFWKSLTFDKEVKVFEFFGDHQEAFRPGAIVSPWRLKSGDASLRLPGIQLEEAGEYRCEVVVTPYKAQGTVQLEVVASPAS",129,0.0865,671000,–,–,165,5,3.2,3.2,1.9
"ΔB7-H6_S3#11-SEED-PGLALA (bispecific antibody, part only; not given: SEED Fc chains and hu225 Fab, part only) chain, part: DLKVEMMAGGTQITPLNDNVTIFCNIFYSQPLNITLMGITWFWKSLTFDKEVKVFEFWGDHQEAFRPGAIVSPWRLKSGDASLRLPGIQLEEAGEYRCEVIVTPFKAQGTVQLEVVASPAS",39.1,0.0432,1.11e+06,–,–,65.8,13,10.5,10.5,3.9
"ΔB7-H6_S3#23-SEED-PGLALA (bispecific antibody, part only; not given: SEED Fc chains and hu225 Fab, part only) chain, part: DLKVEMMAGGTQITPLNDNVTIFCNIFYSQPLNITEMGITWFWKSLTFDKEVKVFEFYGDHQEAFRPGAIVSPWRLKSGDASLRLPGIQLEEAGEYRCEVVVTPYKAQGTVQLEVVASPAS",110,0.0525,479000,–,–,78,11,3.7,3.7,3.2
"ΔB7-H6_S3#1-SEED-PGLALA (bispecific antibody, part only; not given: SEED Fc chains and hu225 EGFR Fab, part only) chain, part: DLKVEMMAGGTQITPLNDNVTIFCNIFYSQPLNITTMGITWFWKSLTFDKEVKVFEFWGDHQEAFRPGAIVSPWRLKSGDASLRLPGIQLEEAGEYRCEVVVTPYKAQGTVQLEVVASPAS",39.1,0.0295,754000,–,–,61.1,14,10.5,10.5,5.7
"ΔB7-H6_S3#9-SEED-PGLALA (bispecific antibody, part only; not given: SEED Fc chains and hu225 EGFR Fab, part only) chain, part: DLKVEMMAGGTQITPLNDNVTIFCNIFYSQPLNITHMGITWFWKSLTFDKEVKVFEFFGDHQEAFRPGAIVSPWRLKSGDASLRLPGIQLEEAGEYRCEVVVTPYKAQGTVQLEVVASPAS",57.8,0.056,970000,–,–,64,14,7.1,7.1,3
"ΔB7-H6_S3#5-SEED-PGLALA (bispecific antibody, part only; not given: SEED Fc chains and hu225 Fab, part only) chain, part: DLKVEMMAGGTQITPLNDNVTIFCNIFYSQPLNITVMGITWFWKSLTFDKEVKVFEFWGDHQEAFRPGAIVSPWRLKSGDASLRLPGIQLEEAGEYRCEVVVTPYKAQGTVQLEVVASPAS",22.5,0.018,799000,–,–,54.7,16,18.2,18.2,9.3
"ΔB7-H6_S3#6-SEED-PGLALA (bispecific antibody, part only; not given: SEED Fc chains and hu225 Fab, part only) chain, part: DLKVEMMAGGTQITPLNDNVTIFCNIFYSQPLNITHMGITWFWKSLTFDKEVKVFEFWGDHQEAFRPGAIVSPWRLKSGDASLRLPGIQLEEAGEYRCEVVVTPYKAQGTVQLEVVASPAS",33.1,0.0244,737000,–,–,40.8,21,12.4,12.4,6.9
"ΔB7-H6_S3#19-SEED-PGLALA (bispecific antibody, part only; not given: SEED Fc chains and hu225 Fab, part only) chain, part: DLKVEMMAGGTQITPLNDNVTIFCNIFYSQPLNITQMGITWFWKSLTFDKEVKVFEFWGDHQEAFRPGAIVSPWRLKSGDASLRLPGIQLEEAGEYRCEVVVTPYKAQGTVQLEVVASPAS",146,0.0981,673000,–,–,240,4,2.8,2.8,1.7
"ΔB7-H6_S3#8-SEED-PGLALA (bispecific antibody, part only; not given: SEED Fc chains and hu225 EGFR Fab, part only) chain, part: DLKVEMMAGGTQITPLNDNVTIFCNIFYSQPLNITHMGITWFWKSLTFDKEVKVFEFWGDHQEAFRPGAIVSPWRLKSGDASLRLPGIQLEEAGEYRCEVIVTPLKAQGTVQLEVVASPAS",80.7,0.0455,564000,–,–,43.7,20,5.1,5.1,3.7
"ΔB7-H6_S3#22-SEED-PGLALA (bispecific antibody, part only; not given: SEED Fc chains and hu225 Fab, part only) chain, part: DLKVEMMAGGTQITPLNDNVTIFCNIFYSQPLNITEMGITWFWKSLTFDKEVKVFEFWGDHQEAFRPGAIVSPWRLKSGDASLRLPGIQLEEAGEYRCEVVVTPYKAQGTVQLEVVASPAS",95.2,0.0441,463000,–,–,106,8,4.3,4.3,3.8
"ΔB7-H6_S3#21-SEED-PGLALA (bispecific antibody, part only; not given: SEED Fc chains and hu225 Fab, part only) chain, part: DLKVEMMAGGTQITPLNDNVTIFCNIFYSQPLNITLMGITWFWKSLTFDKEVKVFEFWGDHQEAFRPGAIVSPWRLKSGDASLRLPGIQLEEAGEYRCEVVVTPYKAQGTVQLEVVASPAS",17.9,0.0211,1.18e+06,–,–,36.1,24,22.8,22.8,8
"ΔB7-H6_S3#3-SEED-PGLALA (bispecific antibody, part only; not given: SEED Fc chains and hu225 Fab, part only) chain, part: DLKVEMMAGGTQITPLNDNVTIFCNIFYSQPLNITHMGITWFWKSLTFDKEVKVFEFFGDHQEAFRPGAIVSPWRLKSGDASLRLPGIQLEEAGEYRCEVFVTPYKAQGTVQLEVVASPAS",104,0.109,1.05e+06,–,–,110,8,3.9,3.9,1.5
